In ChEMBL document CHEMBL2074325, “The multidrug resistance protein 5 functions as an ATP-dependent export pump for cyclic nucleotides” (J Biol Chem, 2000):

System: [H][C@@]12COP(=O)(O)O[C@@]1([H])[C@@H](O)[C@H](n1cnc3c(=O)[nH]c(N)nc31)O2
Assay: TP_TRANSPORTER: uptake in membrane vesicles from MRP5-expressing V79 cells
Assay type: functional, cell membranes, Membrane vesicle

For “ATP-binding cassette sub-family C member 5 (Homo sapiens)”, the Km was 2.1 µM.
